# In patent US8252554B2, “Halohydrin dehalogenases and related polynucleotides” (Codexis, Inc., priority 2003, dated 2012):
# Changes are numbered by the printed parent chain. Names and notes keep the numbering of the source.
# B1: SEQ ID NO: 16: improved HHDH (halohydrin dehalogenase) polypeptide of the Sequence Listing (protein)
# chain: MSTAIVTNVKHFGGMGSALRLSEAGHTVACHDESFKQKDELEAFAETYPQLKPMSEQEPAELIEAVTSAYGQVDVLVSNDIFAPEFQPIDKYAVEDYRGAVEALQIRPFALVNAVASQMKKRKSGHIIFITSATPLGPWKELSTYTSARAGACTLANALSKELGEYNIPVFAIGPNYLHSEDSPYFYPTEPWKTNPEHVAHVKKVTALQRLGTQKELGELVAFLASGSCDYLTGQVFWLAGGFPMIERWPGMPE
# B2: SEQ ID NO: 20: improved HHDH (halohydrin dehalogenase) polypeptide of the Sequence Listing (protein)
# chain: B1 chain with T3P, L136F
# B3: SEQ ID NO: 24: improved HHDH (halohydrin dehalogenase) polypeptide of the Sequence Listing (protein)
# chain: B1 chain with L136F, V199M
# B4: SEQ ID NO: 6: improved HHDH (halohydrin dehalogenase) polypeptide of the Sequence Listing (protein)
# chain: B1 chain with A24T, L136F
# B5: SEQ ID NO: 8: improved HHDH (halohydrin dehalogenase) polypeptide of the Sequence Listing (protein)
# chain: B1 chain with R20S, A29T, L136F
# B6: SEQ ID NO: 12: improved HHDH (halohydrin dehalogenase) polypeptide of the Sequence Listing (protein)
# chain: B1 chain with T3P, V9I, G13S, G16C, S17R, L136F
# B7: SEQ ID NO: 26: improved HHDH (halohydrin dehalogenase) polypeptide of the Sequence Listing (protein)
# chain: B1 chain
# B8: SEQ ID NO: 10: improved HHDH (halohydrin dehalogenase) polypeptide of the Sequence Listing (protein)
# chain: B1 chain with S2T, T3A, A29T, S34R, F35L, K52N, L136F
# B9: SEQ ID NO: 14: improved HHDH (halohydrin dehalogenase) polypeptide of the Sequence Listing (protein)
# chain: B1 chain with V6D, G14S, M15K, S17T, E40D, A133S, L136F
# B10: SEQ ID NO: 22: improved HHDH (halohydrin dehalogenase) polypeptide of the Sequence Listing (protein)
# chain: B1 chain with K36N, L136F, M252V
# B11: SEQ ID NO: 34: improved HHDH (halohydrin dehalogenase) polypeptide of the Sequence Listing (protein)
# chain: B1 chain with T3P, S17T, H26Q, L136F
# B12: SEQ ID NO: 4: improved HHDH (halohydrin dehalogenase) polypeptide of the Sequence Listing (protein)
# chain: B1 chain with K36N, F44L, A45P, S55R, L136F
# B13: SEQ ID NO: 30: improved HHDH (halohydrin dehalogenase) polypeptide of the Sequence Listing (protein)
# chain: B1 chain with A4V, L136F
# B14: SEQ ID NO: 18: improved HHDH (halohydrin dehalogenase) polypeptide of the Sequence Listing (protein)
# chain: MSTAIVTNVKHFGGMGSALRLSEAGHTVACHDESFKQKDELEAFAETYPQLKPMSEQEPAELIEAVTSAYGQVDVLVSNDIFAPEFQPIDKYAVEDYRGAVEALQIRPFALVNAVASQMKKRKSGHIIFITSATPFGPWKELSTYTSARAGACTLANALSKELGEYNIPVFAIGPNYLHSEDSPYFYPTEPWKTNPEHVAHVKKVTALQRLGTQKELGELVAFLASGSCDYLTGQGFFLAGGFPMIERWPGM
# B15: SEQ ID NO: 28: improved HHDH (halohydrin dehalogenase) polypeptide of the Sequence Listing (protein)
# chain: B14 chain with T3P, G236V, F238W
# B16: W139R/N176E: intermediate active HHDH variant with W139 and N176 mutated into an apparent salt bridge (with reference to SEQ ID NO: 2) (protein)
# chain: B1 chain with L136F, W139R, N176E
# B17: W139D/N176R: intermediate active HHDH variant with W139 and N176 mutated into an apparent salt bridge (with reference to SEQ ID NO: 2) (protein)
# chain: B1 chain with L136F, W139D, N176R
# Molecular target: HHDH (Agrobacterium tumefaciens, UniProt Q93D82)
# Sequence (Q93D82 entry or part of it): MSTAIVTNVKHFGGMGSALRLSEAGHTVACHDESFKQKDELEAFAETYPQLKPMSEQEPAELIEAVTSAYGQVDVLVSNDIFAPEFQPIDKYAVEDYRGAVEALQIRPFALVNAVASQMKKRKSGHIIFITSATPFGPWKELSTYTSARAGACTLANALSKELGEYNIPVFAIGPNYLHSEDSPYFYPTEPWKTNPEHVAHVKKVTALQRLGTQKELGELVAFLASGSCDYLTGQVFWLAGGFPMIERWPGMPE
# Test: Inhibition of HHDH by ECAA
# Type: biochemical
# Settings: inhibitor of HHDH
row,Molecule,Ki
1,"CCOC(=O)CC(=O)CCl [ECAA, Ethyl-4-chloroacetoacetate]",~70 µM

# System: not listed separately
# Test: Example 5A gas chromatography assay of HHDH activity (conversion of ECHB to ethyl (R)-4-cyano-3-hydroxybutyrate)
# Type: biochemical
# Settings: ECHB substrate; Activity of Improved HHDH Enzyme/Activity of Agrobacterium sp. HHDH (SEQ ID NO: 2)
# Procedure: To a solution of ethyl (S)-4-chloro-3-hydroxybutyrate (10 mM-100 mM) in 500 mM HCN (500 mM NaCN adjusted to pH 7.0 with phosphoric acid) was added the halohydrin dehalogenase enzyme as a predissolved solution in the same buffer. Over time, aliquots of the mixture were withdrawn and extracted with three volumes of ethyl acetate. The organic layer was then analysed for ethyl (R)-4-cyano-3-hydroxybutyrate by gas chromatography (GC), as described hereinbelow in Example 6. Samples were taken at various time points, and the peak area of the product cyanohydrin, ethyl (R)-4-cyano-3-hydroxybutyrate, was plotted as a function of time. Time points are selected at low conversion, for example, less than 5% conversion, to avoid the effect of product inhibition (e.g., 0.5%, 1.0%, 1.5%, 2.0%, 2.5%, 3.0%, etc.). The peak areas were converted to concentration units using a standard curve that was prepared for the ethyl (R)-4-cyano-3-hydroxybutyrate. Activity of the halohydrin dehalogenase was determined in units of μmol (cyanohydrin produced)/min/mg (total halohydrin dehalogenase catalyst). Relative activities of some of the clones are shown in Table 2, computed as Activity of Improved HHDH Enzyme/Activity of Agrobacterium sp. HHDH (SEQ ID NO: 2).
# The ethyl (R)-4-cyano-3-hydroxybutyrate produced in Example 5A was analyzed using gas chromatography with flame ionization (FID) detection using an Agilent® HP-5™ column, 30 m long, 0.32 mm inner diameter, film 0.25 μm, using the following program: 1 minute at 100° C., 5° C./minute for 10 minutes; 25° C./minute for 2 minutes; then 2 minutes at 200° C. Inlet and outlet temperatures were both 300° C., and the flow rate was 2 ml/minute. Under these conditions, ethyl (R)-4-cyano-3-hydroxybutyrate elutes at 6.25 minutes and ethyl (S)-4-chloro-3-hydroxybutyrate elutes at 4.5 minutes. Chemical purity of the species was measured using the integrated peak areas from the gas chromatography results.
row,Molecule,Fold Improvement in HHDH Activity over Aerobacterium sp. HHDH (SEQ ID NO: 2)
1,B1,2.0 Fold
2,B2,3.8 Fold
3,B3,3.2 Fold
4,B4,1.6 Fold
5,B5,1.8 Fold
6,B6,2.5 Fold
7,B7,1.7 Fold
8,B8,1.7 Fold
9,B9,1.4 Fold
10,B10,2.5 Fold
11,B11,2.4 Fold
12,B12,1.5 Fold
13,B13,2.8 Fold
14,B14,2.7 Fold
15,B15,2.2 Fold

# Same assay, conditions: assay described in Example 5A
row,Molecule,HHDH activity greater than the HHDH activity of Agrobacterium sp. (wild-type) HHDH (SEQ ID NO: 2)
1,B16,greater HHDH activity relative to wildtype HHDH
2,B17,greater HHDH activity relative to wildtype HHDH
